From the supplement of paper PMC6757056
± gives the standard deviation of the averaged measurements.

B1: library; a variant is named by its letters at N, in order (parent)
chain: GCUGUCACCGGUGUAUUACCCUAGUGGUCGACCGGUCUGAUGAGUCUNNNNNNAGACGAAACAGC

Assays:
[1] = variants of: B1; assay: normalized RNA/DNA level with ligand (relative to sTRSVctl = 100) (log10 (% of sTRSVctl)); ligand: hypoxanthine (xanthine aptamer); higher = less ribozyme self-cleavage, higher mRNA level; conditions: ligand concentration (+) RNA-Seq: 5 mM, HEK293T, reporter: mCherry (pCS4076), ligand present: yes
Summary of the method: (§1)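 RNA level was computed as RNA reads over DNA reads divided by a spiked-in non-cleaving sequence or by the top sequences, then scaled and log-transformed. Scaling was ×100 with log10, the top group was 25 sequences, and the threshold was ≥100 DNA reads. The reads came from HEK293T cells transfected at 4 µg per 6-well well with ribozyme switch library plasmids (mCherry, or eGFP in some ligand experiments). Total RNA was extracted with EDTA 72 h after transfection, with any ligand added 1 h before it.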

[2] = variants of: B1; assay: normalized RNA/DNA level without ligand (relative to sTRSVctl = 100) (log10 (% of sTRSVctl)); ligand: hypoxanthine (xanthine aptamer); higher = less ribozyme self-cleavage, higher mRNA level; conditions: HEK293T, reporter: mCherry (pCS4076), ligand present: no
Summary of the method: as §1

| Variant | normalized RNA/DNA level with ligand (log10) [1] | normalized RNA/DNA level without ligand (log10) [2] |
| --- | --- | --- |
| ACGCAC | 1.89 ± 0.022 | 1.7 ± 0.041 |
| CCCCCU | 2.01 ± 0.038 | 1.976 ± 0.014 |
| CCCCCA | 1.94 ± 0.029 | 1.889 ± 0.0072 |
| CCCCCG | 1.92 ± 0.064 | 1.93 ± 0.044 |
| CCGCAU | 1.96 ± 0.048 | 1.786 ± 0.0041 |
| CCGCAC | 1.964 ± 0.013 | 1.754 ± 0.0073 |
| CCGCAA | 1.95 ± 0.04 | 1.78 ± 0.046 |
| GCGAUA | 1.88 ± 0.083 | 1.594 ± 0.0079 |
| ACGAAC | 1.89 ± 0.036 | 1.58 ± 0.017 |
| UCCGAA | 1.94 ± 0.0047 | 1.631 ± 0.0036 |
| UCCGAU | 1.965 ± 0.013 | 1.774 ± 0.0086 |
| UCCGAC | 1.95 ± 0.022 | 1.796 ± 0.016 |
| GCCUGG | 1.94 ± 0.062 | 1.5 ± 0.017 |
| GCCUGU | 1.93 ± 0.024 | 1.83 ± 0.015 |
| GCCUGC | 1.977 ± 0.012 | 1.86 ± 0.045 |
| UCCUAA | 1.956 ± 0.019 | 1.807 ± 0.017 |
| UCCUAU | 1.957 ± 0.0089 | 1.851 ± 0.0031 |
| UCCUAG | 1.91 ± 0.066 | 1.65 ± 0.038 |
| UCGCCA | 2.016 ± 0.0013 | 1.81 ± 0.034 |
| UCGCCC | 1.981 ± 0.01 | 1.99 ± 0.069 |
| UCGCCG | 2 ± 0.035 | 1.841 ± 0.008 |
| ACCGCA | 1.93 ± 0.082 | 1.845 ± 0.017 |
| ACCGCU | 1.925 ± 0.0096 | 1.89 ± 0.041 |

| Variant | normalized RNA/DNA level with ligand (log10) [1] | normalized RNA/DNA level without ligand (log10) [2] |
| --- | --- | --- |
| UCGCGG | 1.93 ± 0.1 | 1.78 ± 0.037 |
| UCGCGA | 1.89 ± 0.03 | 1.69 ± 0.071 |
| UCGCGC | 2.01 ± 0.035 | 1.8 ± 0.024 |
| CCGAUC | 1.99 ± 0.037 | 1.87 ± 0.056 |
| CCGAUA | 1.92 ± 0.049 | 1.72 ± 0.059 |
| CCGAUG | 1.82 ± 0.064 | 1.42 ± 0.049 |
| UCGAGG | 1.89 ± 0.036 | 1.59 ± 0.056 |
| UCGAGC | 1.97 ± 0.029 | 1.6 ± 0.1 |
| ACCGGU | 1.99 ± 0.076 | 1.844 ± 0.0038 |
| ACCGGA | 1.94 ± 0.039 | 1.903 ± 0.014 |
| ACCGGC | 2.001 ± 0.012 | 1.96 ± 0.073 |
| GCCUUU | 1.94 ± 0.041 | 1.92 ± 0.039 |
| UCCCGA | 1.956 ± 0.0054 | 1.8 ± 0.031 |
| UCCCGG | 1.95 ± 0.11 | 1.668 ± 0.0066 |
| UCCCGC | 1.924 ± 0.018 | 1.51 ± 0.017 |
| ACCCGC | 1.91 ± 0.02 | 1.815 ± 0.016 |
| ACCCGA | 1.95 ± 0.028 | 1.755 ± 0.0068 |
| ACCCGU | 1.94 ± 0.024 | 1.82 ± 0.048 |
| CCCCGU | 1.94 ± 0.022 | 1.92 ± 0.055 |
| CCCCGA | 1.95 ± 0.059 | 1.81 ± 0.025 |
| CCCCGC | 1.986 ± 0.019 | 1.9 ± 0.047 |
| CCCCGG | 1.985 ± 0.0052 | 1.97 ± 0.035 |
| GCCACA | 1.958 ± 0.0033 | 1.871 ± 0.0054 |

| Variant | normalized RNA/DNA level with ligand (log10) [1] | normalized RNA/DNA level without ligand (log10) [2] |
| --- | --- | --- |
| GCCACU | 1.99 ± 0.065 | 1.965 ± 0.0028 |
| GCCACG | 1.905 ± 0.0023 | 1.656 ± 0.0069 |
| GCCACC | 1.905 ± 0.011 | 1.834 ± 0.0019 |
| CCGCCU | 1.94 ± 0.025 | 1.95 ± 0.051 |
| CCGCCA | 1.97 ± 0.045 | 1.94 ± 0.053 |
| CCGCCC | 2.025 ± 0.013 | 1.99 ± 0.044 |
| CCGCCG | 1.956 ± 0.016 | 1.66 ± 0.037 |
| ACCCUC | 1.936 ± 0.0052 | 1.895 ± 0.00022 |
| ACCCUU | 1.974 ± 0.013 | 1.92 ± 0.06 |
| ACCCUA | 1.937 ± 0.014 | 1.85 ± 0.047 |
| CCCACU | 1.96 ± 0.037 | 1.87 ± 0.022 |
| CCCACC | 2.01 ± 0.063 | 1.96 ± 0.032 |
| CCCACG | 1.917 ± 0.019 | 1.83 ± 0.029 |
| CCCCUU | 2 ± 0.045 | 1.913 ± 0.014 |
| CCCCUA | 1.98 ± 0.061 | 1.855 ± 0.0056 |
| CCCCUG | 1.927 ± 0.0039 | 1.81 ± 0.04 |
| UCCGGC | 2.019 ± 0.0041 | 1.85 ± 0.056 |
| UCCGGU | 1.98 ± 0.037 | 1.83 ± 0.054 |
| ACCUGC | 1.99 ± 0.051 | 1.912 ± 0.016 |
| ACCUGU | 1.9472 ± 0.00096 | 1.81 ± 0.033 |
| ACCCCG | 1.86 ± 0.032 | 1.45 ± 0.063 |
| ACCCCA | 1.96 ± 0.031 | 1.86 ± 0.062 |
| ACCCCU | 1.967 ± 0.0051 | 1.892 ± 0.0077 |

| Variant | normalized RNA/DNA level with ligand (log10) [1] | normalized RNA/DNA level without ligand (log10) [2] |
| --- | --- | --- |
| ACCCCC | 1.99 ± 0.16 | 1.879 ± 0.013 |
| CCCCAG | 1.84 ± 0.062 | 1.77 ± 0.047 |
| CCCCAC | 1.987 ± 0.018 | 1.9 ± 0.073 |
| CCCCAU | 1.93 ± 0.036 | 1.87 ± 0.046 |
| UCCUCA | 2 ± 0.033 | 1.88 ± 0.048 |
| UCCUCU | 1.99 ± 0.053 | 1.98 ± 0.029 |
| UCCUCC | 1.99 ± 0.055 | 1.78 ± 0.039 |
| UCCUCG | 1.97 ± 0.065 | 1.68 ± 0.058 |
| GCGCCU | 2 ± 0.055 | 1.78 ± 0.052 |
| GCGCCA | 1.97 ± 0.025 | 1.711 ± 0.01 |
| GCGCCG | 1.91 ± 0.03 | 1.44 ± 0.017 |
| CCCUCA | 1.978 ± 0.0074 | 1.9723 ± 0.00098 |
| CCCUCG | 1.93 ± 0.087 | 1.8103 ± 0.0013 |
| CCCUCC | 1.95 ± 0.065 | 2 ± 0.08 |
| ACCGUC | 1.982 ± 0.0058 | 2 ± 0.026 |
| ACCGUG | 1.8625 ± 0.00016 | 1.45 ± 0.051 |
| ACCGUU | 1.91 ± 0.06 | 1.835 ± 0.011 |
| GCGCGC | 1.93 ± 0.082 | 1.68 ± 0.026 |
| GCGCGU | 1.92 ± 0.064 | 1.58 ± 0.12 |
| GCGCGA | 1.844 ± 0.0031 | 1.51 ± 0.025 |
| CCCUUG | 1.984 ± 0.013 | 1.84 ± 0.045 |
| CCCUUU | 2 ± 0.059 | 1.938 ± 0.0021 |
| UCCAAU | 1.94 ± 0.021 | 1.79 ± 0.018 |

| Variant | normalized RNA/DNA level with ligand (log10) [1] | normalized RNA/DNA level without ligand (log10) [2] |
| --- | --- | --- |
| UCGACC | 1.976 ± 0.015 | 1.955 ± 0.011 |
| UCGACA | 1.93 ± 0.023 | 1.72 ± 0.063 |
| UCGACU | 1.93 ± 0.056 | 1.72 ± 0.035 |
| UCGACG | 1.94 ± 0.021 | 1.704 ± 0.007 |
| ACCUAU | 1.908 ± 0.015 | 1.792 ± 0.0054 |
| ACCUAA | 1.942 ± 0.012 | 1.87 ± 0.028 |
| CCCGUA | 1.92 ± 0.015 | 1.85 ± 0.035 |
| CCCGUU | 1.93 ± 0.056 | 1.9 ± 0.024 |
| CCCGUG | 1.97 ± 0.026 | 1.812 ± 0.0064 |
| CCCGUC | 2.027 ± 0.018 | 2.021 ± 0.019 |
| UCGCAU | 1.87 ± 0.022 | 1.68 ± 0.018 |
| UCGCAC | 1.97 ± 0.069 | 1.827 ± 0.014 |
| GCCCAC | 1.92 ± 0.023 | 1.76 ± 0.028 |
| GCCCAA | 1.94 ± 0.037 | 1.8 ± 0.021 |
| GCCCAU | 1.929 ± 0.0057 | 1.866 ± 0.00087 |
| CCGACA | 1.978 ± 0.01 | 1.79 ± 0.025 |
| UCCGUC | 1.97 ± 0.059 | 2.03 ± 0.042 |
| UCCGUA | 1.956 ± 0.0079 | 1.7408 ± 0.0014 |
| GCCAAU | 1.95 ± 0.053 | 1.798 ± 0.0018 |
| ACCAUG | 1.91 ± 0.02 | 1.571 ± 0.013 |
| ACGCCU | 1.945 ± 0.008 | 1.63 ± 0.068 |
| ACGCCG | 1.873 ± 0.011 | 1.4 ± 0.032 |
| ACGCCC | 1.94 ± 0.026 | 1.875 ± 0.0043 |
